# Laboratory results from IntAct's records for PubMed 15992545.
# B1: Auxin-responsive protein IAA12 (Arabidopsis thaliana (Mouse-ear cress)), Q38830 (parent)
# chain: MRGVSELEVGKSNLPAESELELGLGLSLGGGAWKERGRILTAKDFPSVGSKRSAESSSHQGASPPRSSQVVGWPPIGLHRMNSLVNNQAMKAARAEEGDGEKKVVKNDELKDVSMKVNPKVQGLGFVKVNMDGVGIGRKVDMRAHSSYENLAQTLEEMFFGMTGTTCREKVKPLRLLDGSSDFVLTYEDKEGDWMLVGDVPWRMFINSVKRLRIMGTSEASGLAPRRQEQKDRQRNNPV
# partner: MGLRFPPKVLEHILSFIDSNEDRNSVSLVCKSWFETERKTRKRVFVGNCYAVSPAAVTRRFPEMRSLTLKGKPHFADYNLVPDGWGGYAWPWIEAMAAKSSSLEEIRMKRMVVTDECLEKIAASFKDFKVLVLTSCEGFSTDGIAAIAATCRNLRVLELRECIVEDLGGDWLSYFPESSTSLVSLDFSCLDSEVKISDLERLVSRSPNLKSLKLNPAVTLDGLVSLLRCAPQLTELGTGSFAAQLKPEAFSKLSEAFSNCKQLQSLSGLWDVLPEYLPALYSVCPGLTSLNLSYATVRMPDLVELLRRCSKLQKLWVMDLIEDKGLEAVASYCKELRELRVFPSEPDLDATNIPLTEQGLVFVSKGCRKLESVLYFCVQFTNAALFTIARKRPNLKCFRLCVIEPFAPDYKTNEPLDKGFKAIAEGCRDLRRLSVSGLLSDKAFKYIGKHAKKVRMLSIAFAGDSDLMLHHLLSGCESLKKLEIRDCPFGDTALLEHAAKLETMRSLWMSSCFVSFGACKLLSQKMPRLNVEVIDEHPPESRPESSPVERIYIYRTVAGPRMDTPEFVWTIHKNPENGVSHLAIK
# B2: Auxin-responsive protein IAA12 (Arabidopsis thaliana (Mouse-ear cress)), Q38830 (parent)
# chain: B1 chain
# partner: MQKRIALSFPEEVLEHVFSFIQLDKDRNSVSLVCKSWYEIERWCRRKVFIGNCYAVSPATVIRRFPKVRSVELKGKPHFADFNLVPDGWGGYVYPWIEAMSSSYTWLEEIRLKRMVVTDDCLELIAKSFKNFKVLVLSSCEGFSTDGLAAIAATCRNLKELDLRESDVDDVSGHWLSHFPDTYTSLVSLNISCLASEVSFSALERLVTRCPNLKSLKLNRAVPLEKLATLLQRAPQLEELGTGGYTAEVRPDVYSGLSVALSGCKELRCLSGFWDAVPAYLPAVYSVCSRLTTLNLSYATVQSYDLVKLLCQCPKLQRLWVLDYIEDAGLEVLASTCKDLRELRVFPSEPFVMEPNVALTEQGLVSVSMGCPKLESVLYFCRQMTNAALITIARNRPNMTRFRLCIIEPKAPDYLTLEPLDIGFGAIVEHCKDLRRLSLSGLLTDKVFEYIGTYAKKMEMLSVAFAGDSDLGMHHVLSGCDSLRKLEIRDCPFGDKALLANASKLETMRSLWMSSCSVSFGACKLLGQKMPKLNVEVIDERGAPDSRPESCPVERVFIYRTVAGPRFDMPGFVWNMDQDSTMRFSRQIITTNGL
# B3: Auxin-responsive protein IAA12 (Arabidopsis thaliana (Mouse-ear cress)), Q38830 (parent)
# chain: B1 chain
# partner: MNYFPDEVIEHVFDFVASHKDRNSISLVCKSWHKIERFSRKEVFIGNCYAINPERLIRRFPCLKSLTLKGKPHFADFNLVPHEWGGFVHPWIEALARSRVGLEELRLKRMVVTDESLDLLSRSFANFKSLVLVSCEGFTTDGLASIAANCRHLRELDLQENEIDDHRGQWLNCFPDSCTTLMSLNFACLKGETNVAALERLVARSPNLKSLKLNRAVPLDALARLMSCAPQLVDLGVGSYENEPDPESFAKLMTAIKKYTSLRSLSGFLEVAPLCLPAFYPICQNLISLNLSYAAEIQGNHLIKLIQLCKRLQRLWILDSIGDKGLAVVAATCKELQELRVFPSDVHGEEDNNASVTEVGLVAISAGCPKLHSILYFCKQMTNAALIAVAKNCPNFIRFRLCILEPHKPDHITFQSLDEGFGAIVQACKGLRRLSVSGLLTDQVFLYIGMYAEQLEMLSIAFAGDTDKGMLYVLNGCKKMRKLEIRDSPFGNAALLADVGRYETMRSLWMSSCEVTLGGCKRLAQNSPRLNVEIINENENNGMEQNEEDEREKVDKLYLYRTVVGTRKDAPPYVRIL
# Variants of: B1
# Conditions: with grh1_arath GRH1, Q9ZR12
row,Variant,effect of a mutation on the interaction
1,MRGVSELEVGKSNLPAESELELGLGLSLGGGAWKERGRILTAKDFPSVGSKRSAESSSHQGASPPRSSQVVGWSPIGLHRMNSLVNNQAMKAARAEEGDGEKKVVKNDELKDVSMKVNPKVQGLGFVKVNMDGVGIGRKVDMRAHSSYENLAQTLEEMFFGMTGTTCREKVKPLRLLDGSSDFVLTYEDKEGDWMLVGDVPWRMFINSVKRLRIMGTSEASGLAPRRQEQKDRQRNNPV [P74S],decreasing interaction

# Variants of: B2
# Conditions: with tir1_arath TIR1, Q570C0
row,Variant,effect of a mutation on the interaction
1,MRGVSELEVGKSNLPAESELELGLGLSLGGGAWKERGRILTAKDFPSVGSKRSAESSSHQGASPPRSSQVVGWSPIGLHRMNSLVNNQAMKAARAEEGDGEKKVVKNDELKDVSMKVNPKVQGLGFVKVNMDGVGIGRKVDMRAHSSYENLAQTLEEMFFGMTGTTCREKVKPLRLLDGSSDFVLTYEDKEGDWMLVGDVPWRMFINSVKRLRIMGTSEASGLAPRRQEQKDRQRNNPV [P74S],decreasing interaction

# Variants of: B3
# Conditions: with afb3_arath AFB3, Q9LPW7
row,Variant,effect of a mutation on the interaction
1,MRGVSELEVGKSNLPAESELELGLGLSLGGGAWKERGRILTAKDFPSVGSKRSAESSSHQGASPPRSSQVVGWSPIGLHRMNSLVNNQAMKAARAEEGDGEKKVVKNDELKDVSMKVNPKVQGLGFVKVNMDGVGIGRKVDMRAHSSYENLAQTLEEMFFGMTGTTCREKVKPLRLLDGSSDFVLTYEDKEGDWMLVGDVPWRMFINSVKRLRIMGTSEASGLAPRRQEQKDRQRNNPV [P74S],decreasing interaction
